Laboratory results as given in paper PMC10662374, “Structures of the interleukin 11 signalling complex reveal gp130 dynamics and the inhibitory mechanism of a cytokine variant” (Nature Communications, 2023).
Several values for one entry are separate records, joined by “and”; a condition that tells them apart may be missing. Equal entries are not always repeated.

T1: IL-11RαD1-D3 (C-terminally truncated form of human IL-11Rα, structured extracellular domains D1-D3) (human, UniProt Q14626 23-319)
T1 construct: interleukin 11 receptor subunit alpha, human, domains D1-D3 (C-terminally truncated extracellular region); Expressed with a honeybee-melittin signal peptide; not shown: His8, N-terminal, cleaved
T1 sequence: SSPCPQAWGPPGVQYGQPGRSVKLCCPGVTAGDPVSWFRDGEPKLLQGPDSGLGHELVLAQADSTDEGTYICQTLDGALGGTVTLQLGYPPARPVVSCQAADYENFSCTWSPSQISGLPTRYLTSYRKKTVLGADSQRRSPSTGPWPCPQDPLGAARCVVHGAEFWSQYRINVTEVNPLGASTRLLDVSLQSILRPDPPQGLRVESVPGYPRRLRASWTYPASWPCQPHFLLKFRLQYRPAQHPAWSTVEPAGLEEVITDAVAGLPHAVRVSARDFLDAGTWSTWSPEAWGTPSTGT

T2: IL-11Rα D1-D3 (human, UniProt Q14626 23-319)
T2 construct: interleukin 11 receptor subunit alpha, human, C-terminally truncated form with the structured extracellular domains D1-D3; Secreted with a honeybee-melittin signal peptide; tag removed with TEV protease; N-glycosylated; also called IL11RA; RA; not shown: His8, N-terminal, cleaved
T2 sequence: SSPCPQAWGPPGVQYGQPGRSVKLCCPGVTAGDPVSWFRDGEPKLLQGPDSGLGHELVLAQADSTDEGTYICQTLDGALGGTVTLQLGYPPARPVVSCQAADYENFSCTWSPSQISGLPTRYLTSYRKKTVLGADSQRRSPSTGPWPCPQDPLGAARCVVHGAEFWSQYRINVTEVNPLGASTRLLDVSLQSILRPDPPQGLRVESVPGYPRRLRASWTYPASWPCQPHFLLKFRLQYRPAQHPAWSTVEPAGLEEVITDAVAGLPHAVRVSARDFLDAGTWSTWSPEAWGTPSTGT

T3: IL-11Rα_(D1-D3) (human, UniProt Q14626 23-319, N-linked glycans (N105, N172 seen in the structures))
T3 construct: Secreted with a honeybee-melittin signal peptide; also called C-terminally truncated form of IL-11Rα; not shown: His8, N-terminal, cleaved
T3 sequence: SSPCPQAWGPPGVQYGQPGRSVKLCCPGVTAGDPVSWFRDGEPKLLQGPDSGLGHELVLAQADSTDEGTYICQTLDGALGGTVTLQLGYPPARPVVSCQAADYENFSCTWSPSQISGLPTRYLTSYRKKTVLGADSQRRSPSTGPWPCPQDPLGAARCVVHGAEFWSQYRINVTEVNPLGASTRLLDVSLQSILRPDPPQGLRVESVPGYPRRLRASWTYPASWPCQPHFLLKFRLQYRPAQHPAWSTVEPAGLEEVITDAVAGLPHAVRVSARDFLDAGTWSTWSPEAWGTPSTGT


Tests used:
[1] = target: T1, IL-11RαD1-D3 (C-terminally truncated …); test: SPR; Biacore T200; biotinylated IL-11-avi constructs immobilised on a streptavidin chip; IL-11RαD1-D3 injected, two-fold dilutions from 500 nM; 25 °C (298 K); TBS pH 8.5 + 0.05% Tween; 30 μL/min; 1:1 kinetic model; n = 2; details: both partners purified
IL-11Rα D1-D3 = target: T2, IL-11Rα D1-D3; test: SPR; biotinylated IL-11Δ10-avi or IL-11Δ10/Mutein-avi immobilised on a streptavidin chip (SAHC 1500M); IL-11Rα D1-D3 flowed over, nine-point two-fold dilution series from 500 nM; Biacore T200, 25 °C, TBS pH 8.5 + 0.05% Tween, 30 uL/min; 1:1 kinetic model; two replicate dilution series (run 1, run 2); details: both partners purified
IL-11Rα_(D1-D3) [2] = target: T3, IL-11Rα_(D1-D3); test: SPR; Biacore T200, 25 °C, TBS pH 8.5 + 0.05% Tween, 30 μL/min; biotinylated IL-11-avi on a streptavidin chip, IL-11Rα_(D1-D3) flowed over (two-fold dilutions from 500 nM), 1:1 kinetic model, n = 2; details: both partners purified
IL-11Rα_(D1-D3) [3] = target: T3, IL-11Rα_(D1-D3); test: cell-based or functional assay
IL-11Rα_(D1-D3) [4] = target: T3, IL-11Rα_(D1-D3); test: ITC; cytokine in the syringe (10-fold above IL-11Rα), IL-11Rα_(D1-D3) in the cell at 10 μM, TBS pH 8.5, 1:1 interaction model, n = 3; details: both partners purified

Kd [1] [nM] | kon [1] [M⁻¹ s⁻¹] | koff (IL-11Rα_(D1-D3) [2]) [s⁻¹] | Binder | other results
33 | 1e+06 | – | biotinylated IL-11Δ10/Mutein-avi (ligand, human, biotin on the C-terminal avitag, interleukin 11, human, Δ10 with W147A and 58PAIDY62, as Dm7; numbers count on: the mature protein; also called IL11Δ10/Mutein - Avitag; source: E. coli BL21(DE3), biotinylated in the cells, purified as IL-11Δ10; not shown: avitag, C-terminal, kept; His6, N-terminal, cleaved) SPDPRAELDSTVLLTRSLLADTRQLAAQLRDKFPADGDHNLDSLPTLPAIDYALGALQLPGVLTRLRADLLSYLRHVQWLRRAGGSSLKTLEPELGTLQARLDRLLRRLQLLMSRLALPQPPPDPPAPPLAPPSSAAGGIRAAHAILGGLHLTLDWAVRGLLLLKTRL | –
– | – | – | biotinylated IL-11Δ10/Mutein-avi (ligand, human, biotin on the C-terminal avitag, interleukin 11, human, N-terminally truncated form IL-11Δ10 with the Mutein changes; numbers count on: the mature protein; not shown: His6, N-terminal, cleaved; avitag, C-terminal, kept) SPDPRAELDSTVLLTRSLLADTRQLAAQLRDKFPADGDHNLDSLPTLPAIDYALGALQLPGVLTRLRADLLSYLRHVQWLRRAGGSSLKTLEPELGTLQARLDRLLRRLQLLMSRLALPQPPPDPPAPPLAPPSSAAGGIRAAHAILGGLHLTLDWAVRGLLLLKTRL | Kd (IL-11Rα D1-D3): 35.8 nM and 30.8 nM and 33.3 nM; koff (IL-11Rα D1-D3): 0.035 s⁻¹ and 0.0335 s⁻¹; kon (IL-11Rα D1-D3): 937000 M⁻¹ s⁻¹ and 1.14e+06 M⁻¹ s⁻¹ and 1.04e+06 M⁻¹ s⁻¹
– | – | 0.11 | biotinylated IL-11Δ10-avi (ligand, human, biotin on the C-terminal avitag, interleukin 11 (IL-11), human, N-terminally truncated form IL-11Δ10; numbers count on: the mature protein; source: E. coli BL21(DE3), biotinylated, purified as IL-11Δ10; not shown: His6, N-terminal, cleaved; avitag, C-terminal, kept) SPDPRAELDSTVLLTRSLLADTRQLAAQLRDKFPADGDHNLDSLPTLAMSAGALGALQLPGVLTRLRADLLSYLRHVQWLRRAGGSSLKTLEPELGTLQARLDRLLRRLQLLMSRLALPQPPPDPPAPPLAPPSSAWGGIRAAHAILGGLHLTLDWAVRGLLLLKTRL | –
– | – | 0.034 | biotinylated IL-11_(Δ10/Mutein)-avi (ligand, human, biotin on the C-terminal avitag, interleukin 11 (IL-11), human, IL-11Δ10 with W147A and 58-62 AMSAG changed to PAIDY; numbers count on: the mature protein; source: E. coli BL21(DE3), biotinylated, purified as IL-11Δ10; not shown: His6, N-terminal, cleaved; avitag, C-terminal, kept) SPDPRAELDSTVLLTRSLLADTRQLAAQLRDKFPADGDHNLDSLPTLPAIDYALGALQLPGVLTRLRADLLSYLRHVQWLRRAGGSSLKTLEPELGTLQARLDRLLRRLQLLMSRLALPQPPPDPPAPPLAPPSSAAGGIRAAHAILGGLHLTLDWAVRGLLLLKTRL | –
78 | 1.4e+06 | – | biotinylated IL-11Δ10-avi (ligand, human, biotin on the C-terminal avitag, interleukin 11, human, N-terminally truncated form (Δ10), as Dm1; numbers count on: the mature protein; also called IL11Δ10 - Avitag; source: E. coli BL21(DE3), biotinylated in the cells, purified as IL-11Δ10; not shown: avitag, C-terminal, kept; His6, N-terminal, cleaved) SPDPRAELDSTVLLTRSLLADTRQLAAQLRDKFPADGDHNLDSLPTLAMSAGALGALQLPGVLTRLRADLLSYLRHVQWLRRAGGSSLKTLEPELGTLQARLDRLLRRLQLLMSRLALPQPPPDPPAPPLAPPSSAWGGIRAAHAILGGLHLTLDWAVRGLLLLKTRL | –
– | – | – | IL-11_(Δ10/Mutein) (ligand, human, interleukin 11 (IL-11), human, IL-11Δ10 with W147A and AB loop residues 58-62 AMSAG changed to PAIDY; numbers count on: the mature protein; Parent construct IL-11Δ10; also called IL-11 Mutein; not shown: His6, N-terminal, cleaved) SPDPRAELDSTVLLTRSLLADTRQLAAQLRDKFPADGDHNLDSLPTLPAIDYALGALQLPGVLTRLRADLLSYLRHVQWLRRAGGSSLKTLEPELGTLQARLDRLLRRLQLLMSRLALPQPPPDPPAPPLAPPSSAAGGIRAAHAILGGLHLTLDWAVRGLLLLKTRL | IC50 of inhibition of IL-11Δ10 (20 ng/mL) mediated STAT3 activation (pSTAT3, flow cytometry) in Ba/F3 cells stably expressing human gp130 and IL-11Rα; competes with IL-11 for IL-11Rα and gp130 (IL-11Rα_(D1-D3) [3]): 850 nM; Kd (IL-11Rα_(D1-D3) [4]): 38 nM
